Literature values, collected in paper PMC7277390.

Biological target: serum albumin (MSA) (Mus musculus) (UniProt P07724)
UniProt P07724, sequence (P07724 25-608): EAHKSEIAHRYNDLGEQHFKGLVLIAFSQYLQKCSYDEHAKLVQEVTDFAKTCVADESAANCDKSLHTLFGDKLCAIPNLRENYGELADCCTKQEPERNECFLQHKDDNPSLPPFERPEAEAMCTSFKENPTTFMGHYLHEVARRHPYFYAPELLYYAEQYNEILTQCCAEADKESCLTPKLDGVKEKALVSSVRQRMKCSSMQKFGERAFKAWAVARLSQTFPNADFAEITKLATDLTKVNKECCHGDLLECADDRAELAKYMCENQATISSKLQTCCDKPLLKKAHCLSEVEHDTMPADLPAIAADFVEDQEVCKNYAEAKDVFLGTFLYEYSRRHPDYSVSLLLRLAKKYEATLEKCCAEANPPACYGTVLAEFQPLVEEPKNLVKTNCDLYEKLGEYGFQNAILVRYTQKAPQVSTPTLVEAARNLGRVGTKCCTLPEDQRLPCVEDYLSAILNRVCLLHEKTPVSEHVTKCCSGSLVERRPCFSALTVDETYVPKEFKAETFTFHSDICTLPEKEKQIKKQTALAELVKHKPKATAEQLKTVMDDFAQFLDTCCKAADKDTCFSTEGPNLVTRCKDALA

FcRn (from UniProt Q61559)
Kd: 546 nM
